Experimental findings from patent US20150010538A1 (AbbVie / Abbott, published 2015) are described below.

Residue numbers refer to the chain shown, from its start. Numbers in names are those of the source. Read-outs that look alike come from different tables or passages of the source.

Assay [1] deals with T1, recombinant human CD25 (IL2-Rα) (human, UniProt P01589 22-213, limits assumed).
T1 construct: Bought recombinant soluble protein; also called IL2 receptor α chain; recombinant soluble human CD25
T1 sequence (looked up): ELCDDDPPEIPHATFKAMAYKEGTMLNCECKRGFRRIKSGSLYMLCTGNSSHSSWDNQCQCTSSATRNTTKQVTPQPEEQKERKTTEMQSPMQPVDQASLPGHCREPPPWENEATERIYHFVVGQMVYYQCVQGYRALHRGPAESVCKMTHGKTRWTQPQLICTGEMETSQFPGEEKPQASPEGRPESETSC
The experiment in a line: competition ELISA: binding of biotinylated wild type daclizumab IgG to CD25 in the presence of titrated competitor Fab, O.D. 415. For orientation: An ELISA detects its analyte on a solid surface through an enzyme-linked reagent.
Procedure: Wells of 96-well ELISA plates (Nunc-Immuno MaxiSorp plates, Nalge Nunc, Rochester, N.Y.) were coated with 100 μL of 0.2 μg/mL CD25 (Pepro Tech Inc., Rocky Hill, N.J.) in 0.2 M sodium carbonate-bicarbonate buffer (pH 9.4, Pierce, Rockford, Ill.) overnight at 4° C. After washing with Wash Buffer, wells were blocked with 200 μL of Superblock Blocking Buffer (Pierce, Rockford, Ill.) for 30 min and then washed. […] The plate was then washed with washing buffer three times. After washing, 100 μL of 1 μg/mL HRP-conjugated Streptavidin (Pierce) diluted in ELISA buffer was added to each well. After 30 minutes of incubation at room temperature, plates were washed and bound antibodies were detected by addition of ABTS substrate (Kirkegaard & Perry Laboratories, Gaithersburg, Md.). […] Binding inhibition curves were fitted using nonlinear regression with the software [sequence]

For assay [2], the target named is T1, recombinant human CD25 (IL2-Rα). Put plainly: ELISA competition assay on CD25 (format of Section 6.3.1.1: competitor antibody titrated against biotinylated daclizumab on plate-coated CD25), OD415.
Procedure: (§1) Wells of 96-well ELISA plates (Nunc-Immuno MaxiSorp plates, Nalge Nunc, Rochester, N.Y.) were coated with 100 μL of 0.2 μg/mL CD25 (Pepro Tech Inc., Rocky Hill, N.J.) in 0.2 M sodium carbonate-bicarbonate buffer (pH 9.4, Pierce, Rockford, Ill.) overnight at 4° C. After washing with Wash Buffer, wells were blocked with 200 μL of Superblock Blocking Buffer (Pierce, Rockford, Ill.) for 30 min and then washed. […] The plate was then washed with washing buffer three times. After washing, 100 μL of 1 μg/mL HRP-conjugated Streptavidin (Pierce) diluted in ELISA buffer was added to each well. After 30 minutes of incubation at room temperature, plates were washed and bound antibodies were detected by addition of ABTS substrate (Kirkegaard & Perry Laboratories, Gaithersburg, Md.). […] PRISM (GraphPad, San Diego) and reported as IC₅₀ wild type/IC₅₀ mutant (fold improvement over wild type control).
Assay [3] has the same target. Described as above. This is another data set of the same source.
Procedure: as §1
Assay [4] shares this target. The experiment in a line: competitive ELISA on plate-coated CD25; competitor biotinylated daclizumab.
Procedure: as §1
Assay [5] shares this target. Put plainly: competition ELISA on plate-coated CD25; competitor biotinylated daclizumab.
Procedure: as §1

B1: VSR-SN Fab (Fab, V domains shown)
VH: QVQLVQSGAEVKKPGSSVKVSCKASGYTFTSYRMHWVRQAPGQGLEWIGYIVPSRGYTEYNQKFKDKATITADESTNTAYMELSSLRSEDTAVYYCARGGGVFDYWGQGTLVTVSS
VL: DIQMTQSPSTLSASVGDRVTITCSASSSISYMHWYQQKPGKAPKLLIYTTSNLASGVPARFSGSGSGTEFTLTISSLQPDDFATYYCHQRSTYPLTFGQGTKVEVK
notes: also called VSR-SN in Fab; copies: 1 + 1
With B1, in assay [1], the “IC50 (read off the curve)” value was approximately 30 nM.

B2: NuhuTac (rehumanized anti-Tac) (antibody, V domains shown)
VH: B1 VH with Q1E, S16A, V52N, R55T, I70M, E74K, T76I, N77S
VL: EIVLTQSPATLSLSPGERATLTCSASSSISYMHWFQQKPGQAPRLLIYTTSNLASGIPARFSGSGSGTDYTLTISSLEPEDFAVYYCHQRSTYPLTFGQGTKVEIK
notes: VH on human framework R3.5H5G, VL on ka3d1; N-terminal Glu in VH; also called rehumanized antibody
In general, EC50 refers to the concentration giving half of the maximal effect. B2: the EC50 stood at 0.71 µg/mL in assay [2] and 0.49 µg/mL in assay [3].

B3: daclizumab VH variant RKGFE (antibody, IgG1, name in Kabat numbering, V domains shown)
VH: B1 VH with V52R, S54K, R55G, Y57F
VL: B1 VL
notes: VH library clone, soluble IgG1
As for B3, in assay [4], the “fold affinity over the parental antibody” value was approximately 10 fold.

B4: daclizumab VH variant RKGFN (antibody, IgG1, name in Kabat numbering, V domains shown)
VH: B1 VH with V52R, S54K, R55G, Y57F, E59N
VL: B1 VL
notes: as for B3
As to B4, the “fold affinity over the parental antibody” value in assay [4] was approximately 10 fold.

B5: daclizumab VH variant QRKFH (antibody, IgG1, name in Kabat numbering, V domains shown)
VH: B1 VH with V52Q, S54R, R55K, Y57F, E59H
VL: B1 VL
notes: as for B3
In the case of B5, the “fold affinity over the parental antibody” value in assay [4] was approximately 10 fold.

B6: daclizumab VH variant SNKYL (antibody, IgG1, name in Kabat numbering, V domains shown)
VH: B1 VH with V52S, S54N, R55K, E59L
VL: B1 VL
notes: as for B3
In the case of B6, the “fold affinity over the parental antibody” value in assay [4] was approximately 10 fold.

B7: NuhuTacVH with daclizumabVL (antibody, V domains shown)
VH: B1 VH with Q1E, S16A, V52N, R55T, I70M, E74K, T76I, N77S
VL: B1 VL
B7: the EC50 in assay [3] was 0.47 µg/mL.

B8: daclizumab VL S29R-S31T (antibody, IgG1, V domains shown)
VH: B1 VH with V52N, R55T
VL: B1 VL with S28R, S30T
notes: Soluble IgG1/kappa; also called R29T31
Take B8: the “fold improvement in binding over daclizumab” value in assay [5] is approximately 2 fold.

B9: daclizumab VH variant RRKFE (antibody, IgG1, name in Kabat numbering, V domains shown)
VH: B1 VH with V52R, S54R, R55K, Y57F
VL: B1 VL
notes: as for B3
As for B9, the “fold affinity over the parental antibody” value in assay [4] was approximately 10 fold.

B10: daclizumab VH and NuhuTacVL (antibody, V domains shown)
VH: B1 VH with V52N, R55T
VL: B2 VL
As to B10, the EC50 in assay [3] is 1.18 µg/mL.

B11: daclizumab VH variant RRGFE (antibody, IgG1, name in Kabat numbering, V domains shown)
VH: B1 VH with V52R, S54R, R55G, Y57F
VL: B1 VL
notes: as for B3
With B11, the “fold affinity over the parental antibody” value in assay [4] was approximately 10 fold.
